# From US20170268001A1, “RNAS WITH TUMOR RADIO/CHEMO-SENSITIZING AND IMMUNOMODULATORY PROPERTIES AND METHODS OF THEIR PREPARATION AND APPLICATION” (THE UNIVERSITY OF CHICAGO, priority 2016, published 2017)
# T1: RIG-I (Homo sapiens, UniProt O95786)
# T1 construct: HEK293 cells overexpressing either the full length RIG-I; host or cells: HEK293; HCT116 also for the qRT-PCR validation
# T1 sequence (O95786 1-925): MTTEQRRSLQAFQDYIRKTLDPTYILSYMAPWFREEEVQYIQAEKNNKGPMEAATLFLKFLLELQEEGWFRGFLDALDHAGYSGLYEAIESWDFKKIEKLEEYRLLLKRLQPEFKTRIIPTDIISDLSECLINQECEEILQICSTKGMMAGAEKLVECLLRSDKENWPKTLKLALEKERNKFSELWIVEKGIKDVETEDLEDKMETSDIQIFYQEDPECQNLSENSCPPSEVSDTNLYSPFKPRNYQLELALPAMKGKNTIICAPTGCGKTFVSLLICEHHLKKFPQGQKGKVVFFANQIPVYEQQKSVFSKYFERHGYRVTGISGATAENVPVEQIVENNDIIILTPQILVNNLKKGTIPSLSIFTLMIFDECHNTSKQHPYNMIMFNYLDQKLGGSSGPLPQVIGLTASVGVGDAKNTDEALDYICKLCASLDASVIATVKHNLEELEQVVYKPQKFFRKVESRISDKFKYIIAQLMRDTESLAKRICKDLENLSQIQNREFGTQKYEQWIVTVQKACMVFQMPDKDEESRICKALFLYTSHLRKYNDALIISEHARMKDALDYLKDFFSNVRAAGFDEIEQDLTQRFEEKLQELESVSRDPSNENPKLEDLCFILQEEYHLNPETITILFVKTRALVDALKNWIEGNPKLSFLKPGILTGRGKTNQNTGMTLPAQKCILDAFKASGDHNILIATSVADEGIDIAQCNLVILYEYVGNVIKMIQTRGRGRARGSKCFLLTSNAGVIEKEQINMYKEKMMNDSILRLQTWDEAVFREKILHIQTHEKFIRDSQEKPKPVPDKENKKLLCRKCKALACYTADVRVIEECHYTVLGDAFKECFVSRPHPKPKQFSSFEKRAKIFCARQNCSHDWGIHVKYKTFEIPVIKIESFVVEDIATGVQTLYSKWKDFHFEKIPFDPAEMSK
# Tests used:
# RIG-I = target: T1, RIG-I; test: HEK293 IFN-beta promoter dual luciferase reporter, RNA stimulation; type: cell-based; details: in vitro transcribed RNA, RIG-I overexpressing HEK293 cells; also activates endogenous RIG-I
# Experimental: We also used reporter HEK293 cells as simple technique to evaluate ability of the given RNA to stimulate IFN-beta production in preliminary in vitro experiments. Technically this was performed as follows: RNA stimulation of HEK293 IFN-beta reporter cells HEK293 cells were seeded in a 24-well plate overnight at a density of 1.5×10^5 cells/ml (75,000 cells/well). Cells were co-transfected with 100 ng of plasmid construct (pCAGGS empty vector, pCAGGS-RIG-I full-length, pCAGGS-RIG-I helicase-RD mutant construct, and […] mutant construct), together with 80 ng of a firefly luciferase reporter gene driven by an IFN-beta promoter and 20 ng of a Renilla luciferase (pRL-null) transfection control. Transfections were performed using a cationic lipid agent, Fugene HD (Promega), at a 3:1 lipid:DNA ratio. Twenty-four hours post-transfection, cells were then stimulated with 1 μg RNA* mixed with Fugene HD at 2:1 lipid: RNA ratio for 24 hours. 20 μl cell lysates were collected in opaque 96-well plates and analyzed for IFN-beta-luciferase and Renilla activity using a BioTek Synergy HT plate reader. The transfection efficiency across different wells was normalized by dividing the IFN-beta luciferase activity with the Renilla activity. All values were further normalized to the unstimulated controls in cells transfected with the empty vector. All pCAGGS RIG-I constructs used in this study were generous gifts from Dr. Jenish Patel and Dr. Adolfo Garcia-Sastre of The Icahn School of Medicine at Mount Sinai in New York City. Synthetic RNA comprised of various stem loop regions of the human U1 snRNA were purchased from IDT Oligos as reported in (Bernard et al., 2012). U1 stem loop I sequence: [NT] ID NO:15); U1 stem loop II sequence: [NT] ID NO:16); U1 stem loop III sequence: [NT] ID NO:17); U1 stem loop IV sequence: [NT] ID NO:18); U1 stem loops I and II sequence: [NT] ID NO:19); U1 stem loops II and III sequence: [NT] ID NO:20). In vitro transcribed U1 RNA stimulation: Full length U1 (pT7U1) plasmid was generously provided by Dr. Joan Steitz (Yale School of Medicine, Yale University). […]
# MC38 tumors = test: MC38 tumor growth after IR (20Gy) plus intratumoral RNA with jetPEI; type: in vivo, mouse; details: in combination with jetPEI lipid and IR (20Gy); injected 1, 7 and 14 days post-IR
# Experimental: To further test ability of delivered RNAs to affect tumor growth we irradiated MC38 tumors at 20Gy and injected irradiated tumors with stem-loop regions of U1 or U2 at 1, 7 and 14 dayspost-IR. Tumors were grown for 17 days post IR and each 3rd day were measured as described in. As is shown in FIG. 40, injection of stem-loop structures of U1 in combination with jetPEI lipid and IR led to the 2-fold suppression of tumor growth as compared with IR only.
# To further test ability of delivered synthetic RNAs (M5 and M8) to affect tumor growth we irradiated MC38 tumors at 20Gy and injected irradiated tumors 1, 7 and 14 dayspost-IR. Tumors were grown for 17 days post IR and each 3rd day were measured as described in. Injection of synthetic RNAs, M5 and M8, in combination with jetPEI lipid and IR led to the 2-fold suppression of tumor growth as compared with IR only.
molecule,measurement,setting,value
"M5: rbRNA, RIG-I agonist, 81 nucleotides, SEQ ID NO:26 (nucleic acid, listed as DNA, chemistry not given here) GACGAAGACCACAAAACCAGATAAAAAATTATTTTTTATCTGGTTTTGTGGTCTTCGTCTATAGTGAGTCGTATTAATTTC",IFN-beta stimulatory activity (IFN-beta luciferase reporter),RIG-I,potent IFN-beta stimulatory activity
same,suppression of tumor growth as compared with IR only,MC38 tumors,2 fold
